In patent US20230218735A1 (Pfizer, published 2023):

Experiments:
[1] = molecular target: T1, genetically modified and chemically inactivated C. difficile toxoid A (Clostridium difficile, UniProt P16154 2-2710); test: ITC
T1 construct: also called TxdA; the toxoid

C. difficile toxin A = C. difficile toxin A (Clostridium difficile, UniProt P16154 1-2710); test: cell-based or functional assay

B1: hCDIFA-46 (antibody, V domains shown)
VH: EVQLVESGGGLVQPGGSLRLSCAASGFTVSRNYMTWVRQAPGKGLEWVSVIYSGGSTYHADSVKGRFTISRDNSKNTLNLQMSSLRAEDTAVYYCARPCPGSSISCDYNMDVWGQGTTVTVSS
VL: QAVVTQPASVSGSPGQSITISCTGTSSDVGGYNYVSWYQQHPGKAPKLIIYEVSNRPSGVSNRFSGSKSGNTASLTISGLQAEDEADYYCTSYTSSSMIDVFGTGTKLTVLG
DH [1]: -11.3 kcal/mol
Kd [1]: 3 nM
Stoichiometry [1]: 1
EC50 TcdA [RLU], toxin neutralization assay (TNA) on IMR90 cells (C. difficile toxin A): 1490 RLU

B2: hCDIFA-56 (antibody, V domains shown)
VH: QVQLVQSGAEVKKPGASVKVSCKVSGYTLPELSMHWVRQAPGKGLEWMGGFDPEDDDTIYAQKFQGRVTMTEDTSTDTAYLELSSLRSEDTAVYYCATDSSPLYNENYFGSAAFDVWGQGTTVTVSS
VL: AIRMTQSPSSLSASVGDRVTITCRASQGISTYLAWYQQKPGKAPKLLLYAASRLESGVPSRFSGSGSGTDYTLTINSLQPEDFATYYCQQYDRMPRTFGQGTKVEIKR
DH [1]: -10.3 kcal/mol
Kd [1]: 5 nM
Stoichiometry [1]: 0.78
EC50 TcdA [RLU], toxin neutralization assay (TNA) on IMR90 cells (C. difficile toxin A): 111000 RLU

B3: hCDIFA-7 (antibody, V domains shown)
VH: QVQLRESGPGLVKPSETLSLTCTVSGGSVSNYYWSWIRQPPGKGLEWIGYIYSSGTINFNPSLKGRVTISGDTSKNQFSLKLSSVTAADTAVYYCARSGKWALGAFDIWGQGTMVTVSS
VL: QSALTQPPSVSGAPGQRVTISCTGSSSNIGTGYDVHWYQQLPGKVPKLLIHGNGDRPSGVPDRFSASKSGTSASLAITGLQSEDEGDYYCQSYDNSLSGLVVFGGGTKLTVLG
DH [1]: -13.5 kcal/mol
Kd [1]: 118 nM
Stoichiometry [1]: 2.94
EC50 TcdA [RLU], toxin neutralization assay (TNA) on IMR90 cells (C. difficile toxin A): 13300 RLU

B4: hCDIFA-8 (antibody, V domains shown)
VH: QVQLVESGGGLVKPGGSLRLSCAASGFTFSTSSMNWVRQAPGKGLEWVSSINTSGDYIYYTDSVKGRFTISRDNAKNSLYLQMNSLRAEDTAVYYCARDLGTWRDYWGQGTLVTVSS
VL: QSVLTQPASVSGSPGQSITISCTGTSSDVGSYNLVSWYHQHPGKAPKLIIYEVSKRPSGVSNRFSGSKSGNTASLTISGLQAEDEADYYCYSYAGSSAFAWVFGTGTKLTVLG
DH [1]: -6.9 kcal/mol
Kd [1]: 20 nM
Stoichiometry [1]: 2.02
EC50 TcdA [RLU], toxin neutralization assay (TNA) on IMR90 cells (C. difficile toxin A): 35400 RLU

B5: hCDIFA-11 (antibody, V domains shown)
VH: QVQLVQSATEMKKPGASVKVSCKASGYTFSDSYMHWVRQAPGQGLEWMGWINPDSGGTNYAQKFKGWVTMTRDTSINTVYMELRRLRSDDTAVYYCARDGGDYARHSLDYWGQGTLVTVSS
VL: DVVMTQSPGTLSLSPGERVTLSCRASQSVNSDYLVWYQQKPGQAPRLLIYGASSRATGIPDRFSGSGSGPDFTLTISRLEPEDVAVYYCQLYGGLFTFGQGTRLEIKR
DH [1]: -17.9 kcal/mol
Kd [1]: 4 nM
Stoichiometry [1]: 0.97
EC50 TcdA [RLU], toxin neutralization assay (TNA) on IMR90 cells (C. difficile toxin A): 60 RLU
